Laboratory results published in US6716597B2, “Methods and products for regulating cell motility” (priority 2000, dated 2004).

B1: APPPP-mito: Control of FPPPP-mito with phenylalanine changed to alanine in each repeat; does not bind Ena/VASP proteins (protein)
chain: VNASDAPPPPTDEELRLALPETPMLLGFNAPATSEPSSFEAPPPPTDEELRLALPETPMLLGFNAPATSEPSSFEAPPPPTEDELEIIRETASSLDSSFTRGDLASLRNAINRHSQNFSDAPPIPTEEELNGRGGRPTSEEFSSLNSGDFTDDENSETTEEEIDRLADLRDRGTGKHSRNAGFLPLNPFASSPVPSLSPKVSKISAPALISDITKKTPFKNPSQPLNVFNKKTTTKTVTKKPTPVKTAPKLAELPATKPQETVLRENKTPFIEKQAETNKQSINMPSLPVIQKEATESDKEEMKPQTEEKMVEESESANNANGKNRSAGIEEGKLIAKSAEDEKAKEEPGNHTTLILAMLAIGVFSLGAFIKIIQLRKNN
modifications: left off: large carriers
B2: EGFP-Mena: EGFP fused to full-length Mena (amino acids 1-541 of SEQ ID NO: 2), expressed from retroviral vector pMSCV (protein)
chain: MSEQSICQARAAVMVYDDANKKWVPAGGSTGFSRVHIYHHTGNNTFRVVGRKIQDHQVVINCAIPKGLKYNQATQTFHQWRDARQVYGLNFGSKEDANVFASAMMHALEVLNSQEAAQSKVTATQDSTNLRCIFCGPTLPRQNSQLPAQVQNGPSQEELEIQRRQLQEQQRQKELERERMERERLERERLERERLERERLEQEQLERQRQEREHVERLERERLERLERERQERERERLEQLEREQVEWERERRMSNAAPSSDSSLSSAPLPEYSSCQPPSAPPPSYAKVISAPVSDATPDYAVVTALPPTSTPPTPPLRHAATRFATSLGSAFHPVLPHYATVPRPLNKNSRPSSPVNTPSSQPPAAKSCAWPTSNFSPLPPSPPIMISSPPGKATGPRPVLPVCVSSPVPQMPPSPTAPNGSLDSVTYPVSPPPTSGPAAPPPPPPPPPPPPPPPLPPPPLPPLASLSHCGSQASPPPGTPLASTPSSKPSVLPSPSAGAPASAETPLNPELGDSSASEPGLQAASQPAESPTPQGLVLG
modifications: left off: large carriers

Tests used:
Rat2 cells [1] = assay: Count of vinculin- or zyxin-positive focal adhesions per cell; assay type: cell-based, rat; details: Rat2 cells after complete spreading
Method: Rat2 cells (ATCC, Manassas, Va.) were plated and allowed to spread for 1.5-2 hours on acid-washed glass coverslips that had been coated overnight at 4° C. with 10 μg/mL fibronectin (Becton Dickinson, Franklin Lakes, N.J.). Cells were fixed with ice-cold 4% paraformaldehyde in PBS for 10 minutes at room temperature. Cells were washed twice with PBS and then permeabilized with 0.2% Triton X-100 in PBS for 3 minutes and washed two more times with PBS. Coverslips were blocked for 30 minutes in 5% BSA (RIA grade)/5% normalized Donkey serum in PBS. All subsequent antibody steps were incubated in 1% BSA/PBS for at least 30 minutes and washes were in PBS. Anti-Mena polyclonal antisera (2197, produced by Gertler laboratory) was used at 1:400, anti-VASP polyclonal antisera (M4, Alexis Corporation, San Diego, Calif.) was used at 1:400, coumarin-phallicidin (Molecular Probes Inc., Eugene, Oreg.) was used at 1:20, anti-vinculin monoclonal antibody (F7g, a kind gift from K. Burridge) was used at 1:20. All secondary antibodies (Texas Red-, Cy5-Donkey anti-rabbit or anti-mouse, Jackson ImmunoResearch Laboratories, Inc., West Grove, Pa.) were used at 1:500. Coverslips were mounted with Fluoromount G (Electron Microscopy Sciences, Fort Washington, Pa.) and viewed on a Zeiss Axiophot microscope equipped with a Deltavision imaging and software system (Applied Precision Inc., Issaquah, Wash.).
Cell-population analysis was undertaken to explore the hypothesis that focal adhesion formation and number are unaffected by overexpression or sequestration of Ena/VASP proteins. Because cell migration depends on adhesion as well as actin polymerization at the leading edge, the various cell populations were analyzed to determine if the assembly, morphology or distribution of focal adhesions was affected. EGFP-Mena overexpressing (the “high ” population), FPPPP-mito (SEQ ID NO: 3) and control cells were each stained after complete spreading with a battery of focal adhesion markers (FAK, vinculin, paxillin, tensin, phosphotyrosine, and zyxin).

Listeria = Listeria motility in MVD7 cells expressing Mena constructs; assay type: cell-based, Listeria monocytogenes; details: high expression level, compared with GFP-Mena high (FIG. 11)
Method: MVD7 cells were seeded onto a Bioptics dish the night before an experiment, and Listeria was also cultured overnight taking care to not over saturate the bacterial culture. MVD7 cells were then exposed to Listeria. The Bioptics dishes were centrifuged at 500×g for 3 min in a swinging bucket centrifuge to force the bacteria up against the MVD7 cells. The cells were then incubated for 1.5 hrs at 37° C. The plates were washed 3 times with media to remove bacteria not associated with cells. Bacteria were then viewed with 100x phase contrast microscopy. Time-lapse movies were recorded and speeds were quantitated with DIAS software.

MV^D7 cells = assay: Time-lapse videomicroscopy cell speed in Ena/VASP-deficient MV^D7 fibroblasts; assay type: cell-based, mouse; details: MV^D7 cells expressing the construct vs parental MV^D7
Method: (§1) Cells adapted to microscopy media (Life Technologies, Rockville, Md.) as described above were trypsinized, counted, and resuspended in microscopy media at 7.14×10^3 cells/mL. 1.4 mL (10,000 cells) of this cell suspension was added to a ΔT dish (Bioptechs Inc., Butler, Pa.) that had previously been coated overnight with 10 μg/mL fibronectin (Becton Dickinson) at 4° C. and then blocked with lmg/mL cell-culture-grade BSA (Sigma, St. Louis, Mo.). Cells were allowed to attach and spread for 1 hour at 37° C. before movies were initiated. 10x phase contrast movies were 4.5 hours long with a frame taken every five minutes. A custom time-lapse collection script written in IPLabs was used to automate microscope and camera function. Light was shutter controlled. Movies were considered analysis-quality if there were no focus or bubble problems and cells remained alive and dividing throughout the experiment. Once a movie met the quality control criteria, it was transferred into the image analysis program DIAS (Solltech, Inc., Oakdale, Iowa.) and cells were outlined using the Trace on Movie command. […] Cell paths were generated from the calculated centroid positions and parameters (speed and membrane flow) were calculated from the resulting path file. Speed was calculated using the Central Difference Method in DIAS, which is equivalent to a root mean squared calculation. […]

Rat2 fibroblasts = assay: Time-lapse videomicroscopy random migration assay (cell speed, polarity); assay type: cell-based, rat; details: Rat2 cells expressing the construct
Method: as §1, with “controlled.” for “controlled. Movies were considered analysis-quality if there were no focus or bubble problems and cells remained alive and dividing throughout the experiment. Once a movie met the quality control criteria, it was transferred into the image analysis program DIAS (Solltech, Inc., Oakdale, Iowa.) and cells were outlined using the Trace on Movie command.”
Rat 2 cells were exposed to 0, 5 nM, 25 nM, 50 nM, or 500 nM cytochalasin D and motility was measured. One set of cells received no cytochalasin D. Other cells received a low dose of cytochalasin D (e.g. 5 nM or 25 nM) or a high dose of cytochalasin D. (e.g. 500 nM) The motility of the treated cells was assessed using the motility assay described above.

Rat2 cells [2] = assay: Membrane flow (protrusion/retraction, shape change) from digitized movies; assay type: cell-based, rat; details: centroid fixed, independent of translocation
Method: as §1

Molecule	Number of Focal Adhesions per Cell (±SD), Vinculin+ (Rat2 cells [1])	Number of Focal Adhesions per Cell (±SD), Zyxin+ (Rat2 cells [1])	Listeria motility (speed) (Listeria)	cell speed (MV^D7 cells)	cell polarity / polarized morphology (Rat2 fibroblasts)	cell speed (Rat2 fibroblasts; fibronectin, 4.5 hour movies)	average membrane flow per unit time (shape change) (Rat2 cells [2])
B1	81.6 ± 13.9	79.2 ± 29	–	–	–	–	–
B2	72.7 ± 14.4	73.6 ± 20	wild-type Listeria are mobile in MVD7 cells that express EGFP-Mena	The MV^D7 cells migrated significantly faster than the MV^D7/EGFP-Mena cells	distinct lack of polarity	cell speeds decreased with increasing levels of EGFP-Mena expression	changed shape the least
